This passage reports protein production results from a protein production outcome set (Wang et al. 2014).

The data set is described as follows: label from the status in PepcDB records.

In the case of “MLLDVKFTKNTCTKLIGLWLKFFLFYSLLPFSTSAQEASFRFKRLGLEDGLSQISVNGIAQDVNGFIWFATQDGLNKYDGYQITTYRHQPSDPNSIINNHIHSIFKDSKHNLWIGSYGGLSKYEPKTDNFTHYNSPSLNDSDGKVGYIQSLFEDSDGELWLSSNMGLYRYSIDTNTYILYLPDDNKPNSVIHSEIKSIAEDSIGNIWIGTTIGVSKYNKRNNTFTNYQHSPENPHSLSNNFVLKIYKDSQNNLWFGTFGGGLDRYDNDTSKFVHHRTNTQNKNSLGNNYIRTILEDSAGMLWLGTNNGLYAFDSSKLIFQRFRHSVNDRHSLSHDVIYSLFQDKDGSLWAGTLGGGVNLFRPSTNVFKHYKSNPNNPESLNANMVYAIYDDDEYVWVGTSGGGLNKLNKTTGKFSNFTEPETSVGLGLNKVNYIIKASEAELWLSTNSDGLLKYNKNTGNITQYKHHPDDRNSLSNNRARGLAIDKEGNLWIGTAGGGLNKLDPISGQFTHFMPDTDNPNSISTNFIRCLLYDSKGRLWTGSYGQGLNRFDFDTQTFINFNKDSVKEPILSNKFIRSIFEDKSGNIWVLTNGGIIKYDESKGSFHSYTTTDGLPSNVVYGALEDQKNNLWLSTNNGLSKFNPQNITFENYTKEEGIQENEFNTGSFFKNKTGEMYFGGINGFTLFHPDKIKKDKTIPTVSFTNLLLYNDAIAIGESERFSSHISSTNALNFAHNDDVITFEFSALSYSQANNISYRYQLQGFSDNWIETDHNHRRATFTNLSKGDYILKVKASNRNRSWGEETTDLRITIAAAYWETTWFRGLLLAIGFIVFVIAIKWREKALNNQNLVLDIMVKERTKELESSQEYSNKLEKLVQKRTLNLQKANTALEQSSITDALTGIRNRRFLDQQLSSDWAIQSRNNLPLSILMIDIDYFKKYNDYYGHQQGDECLQKIAKEIQSVINRPTDNLCRYGGEEFVVITYNDAEGAKHIAKLILKKLDELALVHLTSDKGIVSVSIGLGTMVPSIEVAPARLLKYADDALYQAKNNGRDQLC”, the protein production entry is on record as “failed”.
Take “MLLHLSDLHFGTEKPECLTAIEDFCRQHRPEVIVVSGDLTQRARFIQFYNCKQFLESLNVPYLVVPGNHDIPLYHLWNRFFSPFVRYQFFFGELEPTLETEHFFIVGVNSIRRRYHTRGYISLEQIQKTNEILKQAPSHKLKLVVLHQPFYTPPDQPHGIKDCPVLGRMALDNWSKSGLFGVLHGHLHKTAVYDLTQIYQLRVDESVYDIHAGTATSYRLYKNLPNSFNVILNDGRVEHYWFDPASKAFVLKTDLYEK”: the protein production result is reported as “failed”.
Take “MLLISKKSALAAASTTLFVLLWSSGAIFSKWGLAHASPFAFLLLRFVIALIGLMLLAPLLKLRLPRGRRAMGFAVATGLVLLGAYQIFYILALDLKVTPGVMATIMGVQPILTVVLMERQRSWSRLFGLSLGLAGLVMVVYQSIGLAGMSITGMLCGLLALVSMTAGSIMQKRITDNPLGTLPVQYLAGLLLCALFVPFQPFHFEHSAGFVIPLLWMGLVVSVLATLLLYRLIAQGNLVNVTSLFYLVPAVTALMDYLFFGNRLGLLSLVGMGLIIVGLVFVFRKQP”: the protein production result was “not failed”.
Take “MLLITPDELKSYSVFESVKTRPDELLKQDILEATADIILKVGHDFSDAEYIPLPETVRLALLKLSQFYALINGDESIIKGYTTEKIGDYSYTLGDGSPLQKPDVYALIKDYVKPADPDLEGIEAKVRMRSILEHHHHHH”: the protein production result is “not failed”.
As to “MLLKPDQRLKLDDTDDNLFYAYPRFVTHVDEGFIQRLTDLYRERLQPNTRILDMMSSWVSHLPEEIKFAHVEGHGLNAEELKRNPRLNHYFVQNLNENPGLPLPDQEFDAVLNCVSVQYLQYPEAVFSEIHRILKPGGVAIISFSNRMFYQKAIQAWRDASEPGRLELVKRYFASVPGFSTPEIIARKSTAPNFLQWLGAPGGDPFYAAIAHRKLEHHHHHH”, the protein production result is on record as “failed”.
Consider “MLLKSIIPCMVKAFKFRLYPTTAQAVQLNQHIGSCRFVYNWALDQKIKTYEQTGKSISRFDLNKLIPTLKASNEWLGEVNSQSLQGMTKQVESAFTRFFRGKTGFPKFKSKKNPIQSFPVPQHYSVDFEKNTIKLPKIEPIKAVFHRKFEGELKTATVSRTCKGHYYISILVEDGKELPVKEAFAESTTIGIDVGIKDFAVLSNGEKIENPKYLKNSLKRLKVLQKRVSKKQKGSKNRAKAKQRLAVLHDKITNQRNDFQNKLSFKLISENQAVALETLNVKGMVKNHHLAQSISDSAWSSFVTKLEYKAEWFGKTILRIGQFEPSSKLCSVCGYHNKELQLKDREWTCPDCKTKHDRDINAAINIKKFALVDQNLIGLLEHHHHHH”, for which the protein production result was “not failed”.
For the sequence “MLLRSPSYAGKAAQAQEGDAYGVYQLATLLIGMDAEDETSCLLAADALYRLGRLDDAHKSLLVALSQRPQAAPVLVRLALLQLRRGFCYDANQLVKKVAQSGDTACLQHMLDIFHHEDLQLLQDHCHTRALSILRARPGGSDSEAHTREAIAYLSLAIFAAGSGGSESLLVRARCYGLLGQKKTAMFDFNAILREEPGNVKALCGRALVHLALDQLQEAVDDMVSALKLDPGTVTPEILSLKTEVQLPLTQGLYTRCRVLLNQCLHTGVPLREEDTQGLLATGKALIRINATQPSWRLLLTDILTGLGKYQEAGTHLQEALHLTPSSEAAQARQGLLQLKKGDVSAAAHGLQCLAERDTQDLGFLLRLLDSPERQSLVQTAAKEASNILDLGNPGQALSYCSLAILAGGNNPYHLRLRVACLTQLREYDRALRDLDRVLQHPAEDSDLPRRSEDFCTRGRLLLSLGDKDGAAGAFTQALALAPAQAQNSLLEQPGQAMTASVFLIHGQRCLEEQHFEEAWTAVQNGLLVDPSHSGLKKLKLRTRKVATSGCRLH”, the protein production entry was “failed”.
Consider “MLLSHIMGMDYIMSIITLALLLLAEILVAIILIGVSIEICSYGWKKSNGIKYSCLLLSLLLGTASILGLLAAPAYFFIQLTEKAL”, for which the protein production entry is “failed”.
For “MLLSVIITAQGRKGYVMQAVRSVLSQNIPKEDFEIIVSKDFKDDVIDEFLDGRAIVLNENHIRSGSRVASAVLQSSGKILVFLDDDDLFYPGKLREVKIVFSEMGVDYFKNSVKPVAESGDTVSYYQPAIKSDIFVKEPNEQDIRKLLKLRAGFNSSSISLKKDILVGYLDVLSKINLAVDSFYFFLYMSHSRPIYYSKKTLSLYRVLSKSTSRDVRNINAYAEFKSKFYELYSRDFETISEMASDGPCSKLAKTEFHLQMAYKWIFNTYRKEERPRMLHTLASSIYSHDPFIALPWPSFMKKIVQRREYFREKKLLSENTELEHHHHHH”, the protein production result was “failed”.
For the sequence “MLLTLALVILFATIMVFFSQEFIRTFKKILAIRGAKLLIPLGIASWLIYNFDYLFIWVIYYIREVLQAVLAFLTRIMPFKPYSTSIALIILLTTVSVGPVLLLDLIYRKRTYKGYAYPYLTSTLILIFCTLILLVVS”, the protein production result is reported as “failed”.
The result for “MLLTLPAPLRRALWAQVRRELPRECVGALGGWVRGEQVQAHALYPLPNVAADPEREYLADPGDLLRVVRAMQREGLDLVALYHSHPHGPAAPSASDRRLAAYPVPYLIADPAAEVLRAYLLPGGEEVEVRSADESNLEHHHHHH” reads “failed”.
Turning to “MLMSEIGQIAAILATAREVAVATHIIPDGDCLGSMLGLTLALRKRGTSVIAINADPVPEMFQYLPGQETIIDPDQVTSMPPLLVMVDCTDMERAGKGFSNWQQRVEKIINIDHHVSNTRFGHLNLVDSRAAATAELIYAVLEQIPATFTPEVATCLYTALATDTGSFQYENCTARTLRLAASLLEKGADMPLIREHLWESKPLNSIRLLAATLPTLTLAYEGRVAWMTVSRAALEANGARPEHAEGLVNYPRSIAGVEVGMLFRELPDGKVKVSLRSKKIVDVNRVAALFGGGGHRRAAGCTLDGDLDTVVARVVAAAGEAL”, the protein production entry is recorded as “failed”.
To “MLMVFALLVSLAFASYHPDDAVVLRSADWSEVVLNPQSAQADGPVQNVLGLLGAQLAEACVPGFIGYGVLLISGLLMVWGYAVFRHASLRRLLYPSLLTAFSAFILSCVVGWVHHTVDAPLRAWAGLVGIGTAGWMQNVFGEVGSFILLLLAGAVLLLLVVDHDIQRTVDRVIRAARRIGAGVSAAGAYIRDQWSRARAHAPEPKATSPASDPSSSASASGSPSASSPEPPSSPPAEESTSSPPPARTRPEDSGAQTPSVRRNDLFRPGRDPAPSATDDNTASPEPAPDSSARTSDADPPEDDAPKDIPDETTASTPAEESPATDSPPPSRPADENASSDEPAAPAPDEPPPDASDGPDDDVSMTIQEQVEEETTDEIERTAELPDDFEYEPPSLDLLDESVDTDPTINREELEENKRVLLDKLDMYNIEIEEINAVVGPTVTRYELTPAPGIKVSRIKSLEDDLAMAMAAPGIRMIAPIPGKSAVGVEIPNRNRELVRLRDVIGTRKFQDTDLKLPLPLGKNIEGEVHVGDLATMPHLLIAGATGSGKSVGLNSIITGLIYACHPANLRFVIIDPKKIELQQYTALETQFVAVPEDIDQTVITDIDEASGVLKSVEREMETRYDLLSDASVRNITGYNEKFQAGELDPTEGHRHMPYLVVVVDELADLMMAAGDDVEGPISRLAQMARAVGIHLILATQRPSVDVVTGVIKANFPSRIAFEVASRVDSRTILDQGGAEDLVGNGDMLFLSGSDLKRLQGPFVSVEEVEEVVDYVADQPGVTPYTLPSLQDAGHGPDETLGVEDTDEKFEEAARVIVRRQQGSVSLLQRKLAVGYTRAARIVDQLEEAGIVGPFNGTKARDVLVDDEQALDDLLHGEDADEADPEEA” belongs “failed”.
To “MLNALKNRLRVWYDPEMKAIARIIREMNSKGGDDLVVTECNKVFVDRLRVFPIALKMDFWEHHFELEGFSDFPEIGGDILDFGCGSGHLDVYLARRGFTVTGVDLSPVGIAIASFIRENEAADVKKRLLFFVADVTADLPPRQFDAAWSAHVFEHIKNPGPVLAGLKNWIKPGGSLLISVPFGRAYDDPGHVNHFYSEADLQHYLGGHISVERIKIYRDHQVIRALCKNDGDGKNDR” belongs “failed”.
Take “MLNFKTFSDLRPKKTRAFVFVKILRLWNWPPNYFGEEPTMILVDEKGHRIDAKSSRHAYKEEMISTLREGKWYILSNFKVVVANPLERFSTHVFQIEFLKKTTMEPVTPKSRYHFIECVDFHTIKHAAPIQKKFVVDAMGVIESVSPIGKIPWVARDWESDFASRYLVFTLKDSMHKYIKCVAVGSSCEEFERKWYKKISEPNFKMEPVMIILRFWKISEFEGKPCLISVYGCSKVHIDPNFRGIDKNNYL”: the protein production entry was “failed”.
As for “MLNKVNLADIRSFVLIAQLGNFTKAAEALSVSRSHVSRQISGLEAQMGVTLLNRTTRTLRLTHAGERFYHDCEKALRDIDQALIAAVDDTQEIRGVIRVNCVGGYIGEDIIAKYVCEFMQQYPNVSIDLDFSSPRIDLIEDQFDVAFRMGELDDAGFVARKLMTVDMVTLASPSYVQQYGMPIHPKELAEHRTLTGSVARWSYRKADNPNDHTDVVVKGNLRCKNGRALVMGALHGNGIIRVPLSYCAEEVELGQLIKVMPNWEIPSVPFSAIFHRDRYQPKRLRTFIDFIKQKFEDS”, the protein production entry is listed as “failed”.
For “MLNMQRLQTVLLQCAGWLLYMSLLMLIALALPADIFDSQSKHFIFLVGAVGIWRYSMGATHFIRGMIFLYGVYPYLRRKVQKMGNATDPSHVYLMVTSFRIEALTTAQVYSSVIREAINCGFPTTVVCSLVEMSDELLVKSLWAKYNPPAHVKLDIVRIAGTGKRDGLAYGFRAISRMLPDENAVVAVIDGDTVLADGVVRKTVPWFKLFPNVGGLTTNEFCEVRGGYIMSEWHKLRFAQRHINMCSMALSKRVLTMTGRMSMFRASVVTNPEFIADVESDSLMHWRLGRFKFLTGDDKSSWFSLMRLGYDTFYVPDAAINTVEHPPEKSFLKASRKLMYRWYGNNLRQNSRALGLGLRRLGLFTSIVLFDQRVSMWTSLLGLTVAVIASLKFGMAFLLVYLLWIGITRLILTIMLLCSGHNVGPAYPLILYYNQIIGALMKIYVFFRLDKQSWTRQPTALKRDLASFQQWFNTWSSRTMTFSAASIFVAVLFMVV”, the protein production result was “failed”.
To “MLNRVFLEGEIESSCWSVKKTGFLVTIKQMRFFGERLFTDYYVIYANGQLAYELEKHTKKYKTISIEGILRTYLERKSEIWKTTIEIVKIFNPKNEIVIDYKEI” belongs “not failed”.
